Measurements taken from patent publication US12331110B2, “Monoclonal antibodies against endotrophin and the use thereof” (THE BOARD OF REGENTS OF THE UNIVERSITY OF TEXAS SYSTEM, priority 2018, dated 2025).

What was measured:
[1] = tested on: MCF7 cells; assay: MCF7 tumor growth in nude mice; format: in vivo; settings: 2.5 mg/kg cisplatin once a week, estradiol pellet
Experimental: FIGS. 5A-C. Antibody effects on ETP-MCF7 cells in vivo. (FIG. 5A) ETP transfected MCF7 cells (2×10^6 cells) were implanted into nude mice. An estradiol pellet (0.72 mg) was implanted into nude mice. Then (i) 20 mg/kg ETPmAb4, (ii) 10 mg/kg ETPmAb4 with 10 mg/kg control IgG, (iii) 5 mg/kg ETPmAb4 with 15 mg/kg control IgG, (iv) 2 mg/kg ETPmAb4 with 18 mg/kg control IgG, and (v) 20 mg/kg control IgG (twice a week) were injected after 10-days implantation for 5-weeks. Tumor volume was determined by caliper measurement. Data was represented as mean±SD (n=5/group), and *** p<0.0001 by ANOVA followed by Newman-Keuls multiple comparison test. (FIG. 5B) Total RNA was prepared from tumor tissues from ETP transfected MCF7, ETPmAb4 treatment mice. The EMT markers genes Twist, Snail, Cdh2 and Cdh 1 were determined by qRT-PCR, then normalized to GAPDH. […] Tumor volume was determined by caliper measurement. […]
(§1) Animal experiments. […] Tumors were measured twice a week, beginning 10 days after injection, and tumor volume was calculated by length×(width) 2/2 (mm^3).
(§2) Analysis of Tumor Progression. Tumor onset was monitored twice weekly by palpation. Tumor sizes were measured using a digital caliper twice weekly and the volumes were calculated as length× width2)/2. […] Animals were sacrificed when the tumor burden visibly affected the host, or when the tumors reached the IACUC pre-determined limit of 20 mm along one axis. […]

[2] = tested on: ETP transfected MCF7 cells; assay: ETP transfected MCF7 tumor growth in nude mice; format: in vivo; settings: 2.5 mg/kg cisplatin once a week
Experimental: FIGS. 5A-C. Antibody effects on ETP-MCF7 cells in vivo. (FIG. 5A) ETP transfected MCF7 cells (2×10^6 cells) were implanted into nude mice. An estradiol pellet (0.72 mg) was implanted into nude mice. Then (i) 20 mg/kg ETPmAb4, (ii) 10 mg/kg ETPmAb4 with 10 mg/kg control IgG, (iii) 5 mg/kg ETPmAb4 with 15 mg/kg control IgG, (iv) 2 mg/kg ETPmAb4 with 18 mg/kg control IgG, and (v) 20 mg/kg control IgG (twice a week) were injected after 10-days implantation for 5-weeks. Tumor volume was determined by caliper measurement. Data was represented as mean±SD (n=5/group), and *** p<0.0001 by ANOVA followed by Newman-Keuls multiple comparison test. (FIG. 5B) Total RNA was prepared from tumor tissues from ETP transfected MCF7, ETPmAb4 treatment mice. The EMT markers genes Twist, Snail, Cdh2 and Cdh 1 were determined by qRT-PCR, then normalized to GAPDH. E-CAD immunofluorescence staining for tumor tissues from ETP transfected MCF7 and ETPmAb4 treatment tumor. (FIG. 5C) MCF7 and ETP transfected MCF7 cells (2×10^6 cells) were implanted into nude mice. An estradiol pellet (0.72 mg) was implanted into nude mice. Then 20 mg/kg of antibody ETPmAb4 (twice a week), and 2.5 mg/kg of cisplatin (once a week) were injected after 10-days implantation for 6-weeks. Tumor volume was determined by caliper measurement. Data was represented as mean±SD (n=5/group), and *** p<0.0001 by ANOVA followed by Newman-Keuls multiple comparison test.
Animal experiments. NU/NU nude female mice were purchased from Charles River (Crl: NU-Foxnlnu; Strain Code 088 (Homozygous)). Breast cancer cells (2×10^6 cells) were implanted by intraductal injection. All cell lines were mixed on ice with 1×PBS and Matrigel. Then 100 μL of mixture was injected into mice. Tumors were measured twice a week, beginning 10 days after injection, and tumor volume was calculated by length×(width) 2/2 (mm^3).
Analysis of Tumor Progression. Tumor onset was monitored twice weekly by palpation. Tumor sizes were measured using a digital caliper twice weekly and the volumes were calculated as length× width2)/2. Inguinal tumors were weighted to determine tumor burden. Animals were sacrificed when the tumor burden visibly affected the host, or when the tumors reached the IACUC pre-determined limit of 20 mm along one axis.
As a next step, whether the anti-endotrophin antibodies effectively curb the aggressive tumor growth observed in endotrophin overexpressing MCF-7 cells was examined. To boost the growth rate of the tumor cells, these assays were performed in the presence of estradiol pellets. Cells (2×10^6 cells) were injected into nude mice and their tumor growth was monitored over time, based on a twice weekly injection of either a control monoclonal preparation, or ETPmAb4; in all cases, a total of 20 mg/kg of antibody was used. The dose dependence was tested by either injecting 20 mg/kg of control antibody, 20 mg/kg of ETPmAb4, or a mixture of the two with decreasing levels of control antibody mixed with increasing levels of ETPmAb4.
To test this, MCF7 cells were used with or without endotrophin overexpression, and the cells were transplanted into nude mice, in the presence of estradiol pellets (FIG. 5C). […] As expected, MCF7 cells harboring an excess in endotrophin grew very aggressively (FIG. 5C; red line).

[3] = tested on: MDA-MB-231 cells; assay: MDA-MB-231 tumor growth in nude mice; format: in vivo; settings: 2.5 mg/kg cisplatin
Experimental: FIGS. 6A-D. The antibody effects on MDA-MB-231 cells in vivo. (FIG. 6A) MDA-MB-231 cells (2×10^6 cells) were implanted into nude mice. Then 2.5 mg/kg of cisplatin and 20 mg/kg of ETPmAb4 antibody (twice a week) were injected after 10-days implantation for 5-weeks. Tumor volume was determined by caliper measurement. The insert reflects a simplified analysis of control antibody versus ETPmAb4 with associated statistics. (FIG. 6B) MDA-MB-231 cells (2×10^6 cells) were implanted into nude mice. Treatment was started when the tumor volume was over 30 mm^3. At that point, 2.5 mg/kg of cisplatin and 20 mg/kg of ETPmAb4 antibody (twice weekly) were injected for 5-weeks. Tumor volumes were determined by caliper measurements. The insert reflects a simplified analysis of control antibody versus ETPmAb4 with associated statistics. (FIG. 6C) SKOV3 cells (2×10^6 cells) were implanted into nude mice. Then 2.5 mg/kg of cisplatin and 20 mg/kg of ETPmAb4 antibody (twice weekly) were injected 10-days after implantation for 5-weeks. Tumor volumes were determined by caliper measurements. The insert reflects a simplified analysis of control antibody versus ETPmAb4 with associated statistics. (FIG. 6D) MDA-MB-231 cells (2×10^6 cells) were implanted into nude mice. Then 2.5 mg/kg of cisplatin, 20 mg/kg of ETPmAb4 antibody and 20 mg/kg of humanized ETPmAb4 antibody (twice a week) were injected after 10-days implantation for 5-weeks. Tumor volume was determined by caliper measurement. […]
as §1, §2
After humanization, the binding affinity of hETPmAb4 to endotrophin was measured in Octet RED96. […]

[4] = target: T1, recombinant endotrophin protein (Homo sapiens, UniProt P12111); assay: Affinity measurement with BLI (Octet RED96); settings: Octet (96-Red), 1:1 binding model
T1 construct: the latter consisting of 77 amino acids at the carboxy-terminal of the COL6α3 chain; CD33 signal peptide (N, cleaved yes); His-tag with EK-cleavage site (N, cleaved yes); purchased Sino Biological, Beijing, China; host or cells: HEK293
Experimental: FIGS. 12A-B. Kinetic sensorgrams for ETP-mAb4 (FIG. 12A) and each of the humanized antibodies (FIG. 12B). […]
For antibody affinity measurement, antibody (30 μg/mL) was loaded onto the protein A biosensors for 4 min. Following a short baseline in kinetics buffer, the loaded biosensors were exposed to a series of recombinant endotrophin protein at 0.1-200 nM and background subtraction was used to correct for sensor drifting. All experiments were performed with shaking at 1,000 rpm. Background wavelength shifts were measured from reference biosensors that were loaded only with antibody. Kinetic sensorgrams for each antibody are shown in FIGS. 12A&B. ForteBio's data analysis software was used to fit the data to a 1:1 binding model to extract an association rate and dissociation rate. The Kd was calculated using the ratio of koff/kon and the estimated values of […] for endotrophin ETP-mAb4 and 4 humanized ETP-hMab4 antibodies are listed in Table 4.

T1 sequence (P12111 3101-3177): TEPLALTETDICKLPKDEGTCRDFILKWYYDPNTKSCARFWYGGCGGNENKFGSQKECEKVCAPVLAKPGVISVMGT

kdis [4]	kon [4]	Molecule	lesion growth, cisplatinum [1]	lesion growth, cisplatinum alone or with control antibody [2]	lesion growth, cisplatinum alone or with control antibodies [3]
–	–	N.N.[Cl][Pt][Cl] [cisplatinum, cisplatin, reference compound]	significantly curbed lesion growth	moderately reduced	reduced
3.28 E−04 1/s	1.30 E+05 1/Ms	ETP-mAb4.4: humanized IgG1 version of ETPmAb4; VH SEQ ID NO: 161, VL SEQ ID NO: 158 (antibody, V domains shown, human IgG1 constant regions) VH: EVQLLESGGGLVQPGGSLRLSCAASGFSFSSGYYICWVRQAPGKGLEWIACIYGGNNNPYYANWVNGRFTTSRDNSKNTLYLQMNSLRAEDTAVYYCARKDINIGGAYELWGQGTLVTVSS VL: DIQMTQSPSSLSASVGDRVTITCQASQSISSSYLSWYQQKPGKAPKLLIYKASTLASGVPSRFSGSGSGTDFTLTISSLQPEDFATYYCQYSDWANSYGNAFGGGTKVEIK	–	–	–
3.05 E−04 1/s	1.23 E+05 1/Ms	ETP-mAb4.2: humanized IgG1 version of ETPmAb4; VH SEQ ID NO: 159, VL SEQ ID NO: 158 (antibody, V domains shown, human IgG1 constant regions) VH: EVQLLESGGGLVQPGGSLRLSCAASGFSFSSGYYICWVRQAPGKGLEWIACIYGGNSNPYYANWVNGRFTISRDNSKNTLYLQMNSLRAEDTAVYYCARKDINIGGAYELWGQGTLVTVSS VL: DIQMTQSPSSLSASVGDRVTITCQASQSISSSYLSWYQQKPGKAPKLLIYKASTLASGVPSRFSGSGSGTDFTLTISSLQPEDFATYYCQYSDWANSYGNAFGGGTKVEIK	–	–	–
2.23 E−04 1/s	1.16 E+05 1/Ms	ETP-mAb4.5: humanized IgG1 version of ETPmAb4; VH SEQ ID NO: 162, VL SEQ ID NO: 158 (antibody, V domains shown, human IgG1 constant regions) VH: EVQLLESGGGLVQPGGSLRLSCAASGFTFSSGYYICWVRQAPGKGLEWIACIYGGNSNPYYANWVNGRFTISRDNSKNTLYLQMNSLRAEDTAVYYCARKDINIGGAYELWGQGTLVTVSS VL: DIQMTQSPSSLSASVGDRVTITCQASQSISSSYLSWYQQKPGKAPKLLIYKASTLASGVPSRFSGSGSGTDFTLTISSLQPEDFATYYCQYSDWANSYGNAFGGGTKVEIK	–	–	–
2.35 E−04 1/s	1.16 E+05 1/Ms	ETP-mAb4.1: humanized IgG1 version of ETPmAb4; VH SEQ ID NO: 157, VL SEQ ID NO: 158 (antibody, V domains shown, human IgG1 constant regions) VH: EVQLLESGGGLVQPGGSLRLSCAASGFSFSSGYYICWVRQAPGKGLEWIACIYGGNNNPYYANWVNGRFTISRDNSKNTLYLQMNSLRAEDTAVYYCARKDINIGGAYELWGQGTLVTVSS VL: DIQMTQSPSSLSASVGDRVTITCQASQSISSSYLSWYQQKPGKAPKLLIYKASTLASGVPSRFSGSGSGTDFTLTISSLQPEDFATYYCQYSDWANSYGNAFGGGTKVEIK	–	–	–
